In data set [1] the target is T1, GST-OCT4 (human, UniProt Q01860 1-360). Nature of the data set: competition; 50-fold excess unlabeled oligonucleotide abolishes complex; LI-COR Odyssey EMSA kit 1x binding buffer (composition and pH not given), 2.5 mM DTT, 0.25% Tween-20, 1 ug poly(dI-dC) in 20 ul, 20 min at RT; 4% native PAGE in 0.5x TBE. The following applies: protein: recombinant; tags: GST (N-terminal, pAcG2T); label: none; (only one strand printed). In general terms: In EMSA bound probe runs differently from free probe, usually more slowly.
T1 sequence (Q01860 whole entry): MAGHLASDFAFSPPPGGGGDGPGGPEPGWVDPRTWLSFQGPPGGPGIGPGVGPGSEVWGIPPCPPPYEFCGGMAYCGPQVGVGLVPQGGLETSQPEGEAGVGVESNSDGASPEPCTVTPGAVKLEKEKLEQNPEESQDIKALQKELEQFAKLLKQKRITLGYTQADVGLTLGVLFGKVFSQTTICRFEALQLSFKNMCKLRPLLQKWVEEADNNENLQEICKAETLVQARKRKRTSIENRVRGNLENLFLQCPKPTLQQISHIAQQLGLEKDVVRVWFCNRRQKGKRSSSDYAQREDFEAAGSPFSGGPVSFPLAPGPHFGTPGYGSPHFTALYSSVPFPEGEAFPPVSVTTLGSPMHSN

The target of data set [2] is T1, GST-OCT4. Nature of the data set: EMSA; soluble OCT4, 30 ng per lane; LI-COR Odyssey EMSA kit 1x binding buffer (composition and pH not given), 2.5 mM DTT, 0.25% Tween-20, 1 ug poly(dI-dC) in 20 ul, 20 min at RT; 4% native PAGE in 0.5x TBE. The following applies: protein: recombinant; tags: GST (N-terminal, pAcG2T); label: IRDye 700; (only one strand printed).

B1: unlabeled octamer oligonucleotide (dsDNA)
DNA 1: GCCGAATTTGCATATTTGCATGGCTG
DNA 2: CAGCCATGCAAATATGCAAATTCGGC
As to B1, in the data set with GST-OCT4 [1], the binding result is reported as “binds”.

B2: octamer oligonucleotide (Ig heavy chain enhancer) (dsDNA)
DNA 1: GCCGAATTTGCATATTTGCATGGCTG
DNA 2: CAGCCATGCAAATATGCAAATTCGGC
For the molecule B2, in the data set with GST-OCT4 [2], the binding result is on record as “binds”.

The record behind these values is PMC5122344, “Nuclear delivery of recombinant OCT4 by chitosan nanoparticles for transgene-free generation of protein-induced pluripotent stem cells”.
